US20220153859A1 (ANOKION, published 2022)

T1: Human glycophorin A extract (hGPA extract) (human, UniProt P02724 20-150)
T1 construct: also called human GPA extracted from red blood cells (extract)
T1 sequence (looked up): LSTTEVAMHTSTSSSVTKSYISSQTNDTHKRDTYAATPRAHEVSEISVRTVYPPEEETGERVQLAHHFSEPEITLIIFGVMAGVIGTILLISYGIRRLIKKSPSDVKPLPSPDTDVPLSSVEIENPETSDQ

T2: Human glycophorin A on human erythrocytes (human, UniProt P02724 20-150)
T2 construct: whole, on cells; Target of the flow cytometry assays on human erythrocytes; also called human GPA; hGPA
T2 sequence (looked up): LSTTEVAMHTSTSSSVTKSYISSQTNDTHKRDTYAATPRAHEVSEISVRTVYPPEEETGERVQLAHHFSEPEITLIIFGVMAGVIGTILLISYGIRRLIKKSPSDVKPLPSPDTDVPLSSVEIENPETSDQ


What was measured:
[1] = molecular target: T1, Human glycophorin A extract (hGPA …); experiment: Biacore SPR, hGPA extract, apparent
[2] = molecular target: T2, Human glycophorin A on human …; experiment: flow cytometry (FACS) on human erythrocytes, soluble Fab
[3] = molecular target: T1, Human glycophorin A extract (hGPA …); experiment: Biacore SPR, hGPA extract, apparent KD
[4] = molecular target: T1, Human glycophorin A extract (hGPA …); experiment: Octet BLI, hGPA extract, apparent
[5] = molecular target: T1, Human glycophorin A extract (hGPA …); experiment: Octet BLI, hGPA extract, apparent KD

| koff [1] | kon [1] | EC50 [2] | Kd [3] | koff [4] | kon [4] | Kd [5] | Binder |
| --- | --- | --- | --- | --- | --- | --- | --- |
| 0.00667 s⁻¹ | 47300 M⁻¹ s⁻¹ | 73 nM | 141 nM | 0.0067 s⁻¹ | 47000 M⁻¹ s⁻¹ | 140 nM | Humanized 10F7-M10 Fab (non-affinity matured) (Fab, Soluble Fab expressed in HEK cells; also called clone m10; wild-type 10F7-M10) heavy: EVQLLESGGGLVQPGKSLRLSCKASGYTFNSYFMHWVRQAPGKGLEWVGMIRPNGGTTDYNEKFKNRFTLSVDKSKNTAYLQMNSLRAEDTAVYYCARWEGSYYALDYWGQGTASTKGPSVFPLAPSSKSTSGGTAALGCLVKDYFPEPVTVSWNSGALTSGVHTFPAVLQSSGLYSLSSVVTVPSSSLGTQTYICNVNHKPSNTKVDKKVEPKSC light: EITLTQSPATLSLSPGERATLSCRASSNVKYMYWYQQKPGQAPRLWIYYTSNLASGIPDRFSGSGSGTDYTLTISRLEPEDFAVYYCQQFTSSPYTFGQGTKVEVKRTVAAPSVFIFPPSDEQLKSGTASVVCLLNNFYPREAKVQWKVDNALQSGNSQESVTEQDSKDSTYSLSSTLTLSKADYEKHKVYACEVTHQGLSSPVTKSFNRGEC |
| 0.00218 s⁻¹ | 198000 M⁻¹ s⁻¹ | 14 nM | 11 nM | 0.0022 s⁻¹ | 200000 M⁻¹ s⁻¹ | 11 nM | Humanized & affinity matured 10F7-M10 Fab clone L1+2-8 (Fab, Soluble Fab from HEK cells; all domains other than VL are the same as wild-type 10F7-M10; also called ID-HH-Y) heavy: EVQLLESGGGLVQPGKSLRLSCKASGYTFNSYFMHWVRQAPGKGLEWVGMIRPNGGTTDYNEKFKNRFTLSVDKSKNTAYLQMNSLRAEDTAVYYCARWEGSYYALDYWGQGTASTKGPSVFPLAPSSKSTSGGTAALGCLVKDYFPEPVTVSWNSGALTSGVHTFPAVLQSSGLYSLSSVVTVPSSSLGTQTYICNVNHKPSNTKVDKKVEPKSC light: EITLTQSPATLSLSPGERATLSCRASSNVIDMYWYQQKPGQAPRLWIHHTSYLASGIPDRFSGSGSGTDYTLTISRLEPEDFAVYYCQQFTSSPYTFGQGTKVEVKRTVAAPSVFIFPPSDEQLKSGTASVVCLLNNFYPREAKVQWKVDNALQSGNSQESVTEQDSKDSTYSLSSTLTLSKADYEKHKVYACEVTHQGLSSPVTKSFNRGEC |
| 0.000568 s⁻¹ | 17300 M⁻¹ s⁻¹ | 6.4 nM | 32.8 nM | 0.00057 s⁻¹ | 17000 M⁻¹ s⁻¹ | 33 nM | Humanized & affinity matured 10F7-M10 Fab clone L1+2-14 (Fab, Soluble Fab from HEK cells; all domains other than VL are the same as wild-type 10F7-M10; also called HQ-HH-K) heavy: EVQLLESGGGLVQPGKSLRLSCKASGYTFNSYFMHWVRQAPGKGLEWVGMIRPNGGTTDYNEKFKNRFTLSVDKSKNTAYLQMNSLRAEDTAVYYCARWEGSYYALDYWGQGTASTKGPSVFPLAPSSKSTSGGTAALGCLVKDYFPEPVTVSWNSGALTSGVHTFPAVLQSSGLYSLSSVVTVPSSSLGTQTYICNVNHKPSNTKVDKKVEPKSC light: EITLTQSPATLSLSPGERATLSCRASSNVHQMYWYQQKPGQAPRLWIHHTSKLASGIPDRFSGSGSGTDYTLTISRLEPEDFAVYYCQQFTSSPYTFGQGTKVEVKRTVAAPSVFIFPPSDEQLKSGTASVVCLLNNFYPREAKVQWKVDNALQSGNSQESVTEQDSKDSTYSLSSTLTLSKADYEKHKVYACEVTHQGLSSPVTKSFNRGEC |
| 0.000931 s⁻¹ | 156000 M⁻¹ s⁻¹ | 3.4 nM | 5.97 nM | 0.00093 s⁻¹ | 160000 M⁻¹ s⁻¹ | 6 nM | Humanized & affinity matured 10F7-M10 Fab clone L1+2-17 (Fab, Soluble Fab from HEK cells; all domains other than VL are the same as wild-type 10F7-M10; also called YF-HH-D) heavy: EVQLLESGGGLVQPGKSLRLSCKASGYTFNSYFMHWVRQAPGKGLEWVGMIRPNGGTTDYNEKFKNRFTLSVDKSKNTAYLQMNSLRAEDTAVYYCARWEGSYYALDYWGQGTASTKGPSVFPLAPSSKSTSGGTAALGCLVKDYFPEPVTVSWNSGALTSGVHTFPAVLQSSGLYSLSSVVTVPSSSLGTQTYICNVNHKPSNTKVDKKVEPKSC light: EITLTQSPATLSLSPGERATLSCRASSNVYFMYWYQQKPGQAPRLWIHHTSDLASGIPDRFSGSGSGTDYTLTISRLEPEDFAVYYCQQFTSSPYTFGQGTKVEVKRTVAAPSVFIFPPSDEQLKSGTASVVCLLNNFYPREAKVQWKVDNALQSGNSQESVTEQDSKDSTYSLSSTLTLSKADYEKHKVYACEVTHQGLSSPVTKSFNRGEC |
| 0.00185 s⁻¹ | 311000 M⁻¹ s⁻¹ | 3.3 nM | 5.95 nM | 0.0018 s⁻¹ | 310000 M⁻¹ s⁻¹ | 5.9 nM | Humanized & affinity matured 10F7-M10 Fab clone L1+2-1 (Fab, Soluble Fab from HEK cells; all domains other than VL are the same as wild-type 10F7-M10; also called FF-HH-N) heavy: EVQLLESGGGLVQPGKSLRLSCKASGYTFNSYFMHWVRQAPGKGLEWVGMIRPNGGTTDYNEKFKNRFTLSVDKSKNTAYLQMNSLRAEDTAVYYCARWEGSYYALDYWGQGTASTKGPSVFPLAPSSKSTSGGTAALGCLVKDYFPEPVTVSWNSGALTSGVHTFPAVLQSSGLYSLSSVVTVPSSSLGTQTYICNVNHKPSNTKVDKKVEPKSC light: EITLTQSPATLSLSPGERATLSCRASSNVFFMYWYQQKPGQAPRLWIHHTSNLASGIPDRFSGSGSGTDYTLTISRLEPEDFAVYYCQQFTSSPYTFGQGTKVEVKRTVAAPSVFIFPPSDEQLKSGTASVVCLLNNFYPREAKVQWKVDNALQSGNSQESVTEQDSKDSTYSLSSTLTLSKADYEKHKVYACEVTHQGLSSPVTKSFNRGEC |
| 0.00132 s⁻¹ | 257000 M⁻¹ s⁻¹ | 3.7 nM | 5.12 nM | 0.0013 s⁻¹ | 260000 M⁻¹ s⁻¹ | 5.1 nM | Humanized & affinity matured 10F7-M10 Fab clone L1+2-21 (Fab, Soluble Fab from HEK cells; all domains other than VL are the same as wild-type 10F7-M10; also called YF-HH-V) heavy: EVQLLESGGGLVQPGKSLRLSCKASGYTFNSYFMHWVRQAPGKGLEWVGMIRPNGGTTDYNEKFKNRFTLSVDKSKNTAYLQMNSLRAEDTAVYYCARWEGSYYALDYWGQGTASTKGPSVFPLAPSSKSTSGGTAALGCLVKDYFPEPVTVSWNSGALTSGVHTFPAVLQSSGLYSLSSVVTVPSSSLGTQTYICNVNHKPSNTKVDKKVEPKSC light: EITLTQSPATLSLSPGERATLSCRASSNVYFMYWYQQKPGQAPRLWIHHTSVLASGIPDRFSGSGSGTDYTLTISRLEPEDFAVYYCQQFTSSPYTFGQGTKVEVKRTVAAPSVFIFPPSDEQLKSGTASVVCLLNNFYPREAKVQWKVDNALQSGNSQESVTEQDSKDSTYSLSSTLTLSKADYEKHKVYACEVTHQGLSSPVTKSFNRGEC |
| 0.00143 s⁻¹ | 222000 M⁻¹ s⁻¹ | 3.3 nM | 6.43 nM | 0.0014 s⁻¹ | 220000 M⁻¹ s⁻¹ | 6.4 nM | Humanized & affinity matured 10F7-M10 Fab clone L1+2-10 (Fab, Soluble Fab from HEK cells; all domains other than VL are the same as wild-type 10F7-M10; also called WF-HH-E) heavy: EVQLLESGGGLVQPGKSLRLSCKASGYTFNSYFMHWVRQAPGKGLEWVGMIRPNGGTTDYNEKFKNRFTLSVDKSKNTAYLQMNSLRAEDTAVYYCARWEGSYYALDYWGQGTASTKGPSVFPLAPSSKSTSGGTAALGCLVKDYFPEPVTVSWNSGALTSGVHTFPAVLQSSGLYSLSSVVTVPSSSLGTQTYICNVNHKPSNTKVDKKVEPKSC light: EITLTQSPATLSLSPGERATLSCRASSNVWFMYWYQQKPGQAPRLWIHHTSELASGIPDRFSGSGSGTDYTLTISRLEPEDFAVYYCQQFTSSPYTFGQGTKVEVKRTVAAPSVFIFPPSDEQLKSGTASVVCLLNNFYPREAKVQWKVDNALQSGNSQESVTEQDSKDSTYSLSSTLTLSKADYEKHKVYACEVTHQGLSSPVTKSFNRGEC |
| 0.00802 s⁻¹ | 382000 M⁻¹ s⁻¹ | 23 nM | 21 nM | 0.008 s⁻¹ | 380000 M⁻¹ s⁻¹ | 21 nM | Humanized & affinity matured 10F7-M10 Fab clone L1+2-24 (Fab, Soluble Fab from HEK cells; all domains other than VL are the same as wild-type 10F7-M10; also called QQ-HH-I) heavy: EVQLLESGGGLVQPGKSLRLSCKASGYTFNSYFMHWVRQAPGKGLEWVGMIRPNGGTTDYNEKFKNRFTLSVDKSKNTAYLQMNSLRAEDTAVYYCARWEGSYYALDYWGQGTASTKGPSVFPLAPSSKSTSGGTAALGCLVKDYFPEPVTVSWNSGALTSGVHTFPAVLQSSGLYSLSSVVTVPSSSLGTQTYICNVNHKPSNTKVDKKVEPKSC light: EITLTQSPATLSLSPGERATLSCRASSNVQQMYWYQQKPGQAPRLWIHHTSILASGIPDRFSGSGSGTDYTLTISRLEPEDFAVYYCQQFTSSPYTFGQGTKVEVKRTVAAPSVFIFPPSDEQLKSGTASVVCLLNNFYPREAKVQWKVDNALQSGNSQESVTEQDSKDSTYSLSSTLTLSKADYEKHKVYACEVTHQGLSSPVTKSFNRGEC |
|  |  | 100 nM |  |  |  |  | Humanized & affinity matured 10F7-M10 Fab clone L1+2-25 (Fab, also called L1 + 2-8-25; AW-YH-K) heavy: EVQLLESGGGLVQPGKSLRLSCKASGYTFNSYFMHWVRQAPGKGLEWVGMIRPNGGTTDYNEKFKNRFTLSVDKSKNTAYLQMNSLRAEDTAVYYCARWEGSYYALDYWGQGTASTKGPSVFPLAPSSKSTSGGTAALGCLVKDYFPEPVTVSWNSGALTSGVHTFPAVLQSSGLYSLSSVVTVPSSSLGTQTYICNVNHKPSNTKVDKKVEPKSC light: EITLTQSPATLSLSPGERATLSCRASSNVAWMYWYQQKPGQAPRLWIYHTSKLASGIPDRFSGSGSGTDYTLTISRLEPEDFAVYYCQQFTSSPYTFGQGTKVEVKRTVAAPSVFIFPPSDEQLKSGTASVVCLLNNFYPREAKVQWKVDNALQSGNSQESVTEQDSKDSTYSLSSTLTLSKADYEKHKVYACEVTHQGLSSPVTKSFNRGEC |
| 0.00155 s⁻¹ | 222000 M⁻¹ s⁻¹ | 3.4 nM | 7 nM | 0.0016 s⁻¹ | 220000 M⁻¹ s⁻¹ | 7 nM | Humanized & affinity matured 10F7-M10 Fab clone L1+2-15 (Fab, Soluble Fab from HEK cells; all domains other than VL are the same as wild-type 10F7-M10; also called FY-HH-W) heavy: EVQLLESGGGLVQPGKSLRLSCKASGYTFNSYFMHWVRQAPGKGLEWVGMIRPNGGTTDYNEKFKNRFTLSVDKSKNTAYLQMNSLRAEDTAVYYCARWEGSYYALDYWGQGTASTKGPSVFPLAPSSKSTSGGTAALGCLVKDYFPEPVTVSWNSGALTSGVHTFPAVLQSSGLYSLSSVVTVPSSSLGTQTYICNVNHKPSNTKVDKKVEPKSC light: EITLTQSPATLSLSPGERATLSCRASSNVFYMYWYQQKPGQAPRLWIHHTSWLASGIPDRFSGSGSGTDYTLTISRLEPEDFAVYYCQQFTSSPYTFGQGTKVEVKRTVAAPSVFIFPPSDEQLKSGTASVVCLLNNFYPREAKVQWKVDNALQSGNSQESVTEQDSKDSTYSLSSTLTLSKADYEKHKVYACEVTHQGLSSPVTKSFNRGEC |
